How the values were obtained:
[1] = target: glucose transporter 4 (GLUT4) on mouse red blood cells (mRBCs) or mRBC membranes (mouse) (UniProt P14142); assay: ELISA of insulin released from Glu-Insulin loaded mRBCs at 37 C
[2] = target: glucose transporter 1 (GLUT1) on human red blood cells (hRBCs) (human) (UniProt P11166); assay: loading of 1x10^8 RBCs with 0.5 mg/mL Glu-Insulin overnight, ELISA
[3] = target: glucose transporter 4 (GLUT4) on mouse red blood cells (mRBCs) or mRBC membranes (mouse) (UniProt P14142); assay: as above
[4] = target: glucose transporter 4 (GLUT4) on mouse red blood cells (mRBCs) or mRBC membranes (mouse) (UniProt P14142); assay: ELISA of insulin bound to mRBCs
[5] = target: glucose transporter 4 (GLUT4) on mouse red blood cells (mRBCs) or mRBC membranes (mouse) (UniProt P14142); assay: flow cytometry (MFI) of Glu-FITC-insulin attached mRBCs treated with free glucose

UniProt P14142, sequence (P14142 whole entry): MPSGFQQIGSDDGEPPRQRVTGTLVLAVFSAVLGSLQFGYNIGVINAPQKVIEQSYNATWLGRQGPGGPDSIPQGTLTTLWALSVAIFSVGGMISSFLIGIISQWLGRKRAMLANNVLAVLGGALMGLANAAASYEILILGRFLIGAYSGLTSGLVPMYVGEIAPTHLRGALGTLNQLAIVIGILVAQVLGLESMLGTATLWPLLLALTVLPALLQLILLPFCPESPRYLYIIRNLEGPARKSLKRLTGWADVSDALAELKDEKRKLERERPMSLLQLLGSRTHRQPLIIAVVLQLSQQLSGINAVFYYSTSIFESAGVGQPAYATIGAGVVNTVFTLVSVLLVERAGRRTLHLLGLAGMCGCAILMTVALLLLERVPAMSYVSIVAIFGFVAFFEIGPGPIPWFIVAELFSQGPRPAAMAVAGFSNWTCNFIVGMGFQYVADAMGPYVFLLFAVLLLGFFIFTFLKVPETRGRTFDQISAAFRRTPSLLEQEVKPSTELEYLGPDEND
UniProt P11166, sequence (P11166 whole entry): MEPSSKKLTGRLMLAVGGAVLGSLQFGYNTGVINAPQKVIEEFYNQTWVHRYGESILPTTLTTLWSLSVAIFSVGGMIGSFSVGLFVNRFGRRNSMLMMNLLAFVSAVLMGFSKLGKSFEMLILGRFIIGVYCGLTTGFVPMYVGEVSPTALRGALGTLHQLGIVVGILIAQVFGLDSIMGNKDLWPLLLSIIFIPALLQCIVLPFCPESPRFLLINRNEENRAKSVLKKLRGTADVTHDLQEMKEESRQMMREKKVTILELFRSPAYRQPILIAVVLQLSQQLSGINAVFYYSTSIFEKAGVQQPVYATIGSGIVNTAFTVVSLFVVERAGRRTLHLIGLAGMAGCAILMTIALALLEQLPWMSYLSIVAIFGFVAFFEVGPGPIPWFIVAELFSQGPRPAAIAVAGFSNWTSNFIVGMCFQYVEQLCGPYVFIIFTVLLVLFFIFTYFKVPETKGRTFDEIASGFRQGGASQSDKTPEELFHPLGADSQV

percent released from mRBCs at 400 mg/dL glucose within 2 h [1]: 50%
percent of Glu-Insulin bound [2]: 60%
percent of Glu-Insulin bound [3]: 20%
loaded insulin per cell [4]: < 5e-13 g per cell
decrease of insulin signal on mRBCs at 400 mg/dL glucose [5]: 50%
Substance: glucose-modified insulin (Glu-Insulin) (from UniProt P01308 90-110; P01308 25-54) (ligand)

— patent US20190015515A1
